Source: paper PMC10881042

How the values were obtained:
[1] = target: PKA type I regulatory subunit RIα, in H295R adrenal cells (human (endogenous in H295R)) (UniProt P10644)
[2] = target: PKA type II regulatory subunit RIIα, in H295R adrenal cells (UniProt P13861)
UniProt P13861, sequence (P13861 whole entry, stated change not applied): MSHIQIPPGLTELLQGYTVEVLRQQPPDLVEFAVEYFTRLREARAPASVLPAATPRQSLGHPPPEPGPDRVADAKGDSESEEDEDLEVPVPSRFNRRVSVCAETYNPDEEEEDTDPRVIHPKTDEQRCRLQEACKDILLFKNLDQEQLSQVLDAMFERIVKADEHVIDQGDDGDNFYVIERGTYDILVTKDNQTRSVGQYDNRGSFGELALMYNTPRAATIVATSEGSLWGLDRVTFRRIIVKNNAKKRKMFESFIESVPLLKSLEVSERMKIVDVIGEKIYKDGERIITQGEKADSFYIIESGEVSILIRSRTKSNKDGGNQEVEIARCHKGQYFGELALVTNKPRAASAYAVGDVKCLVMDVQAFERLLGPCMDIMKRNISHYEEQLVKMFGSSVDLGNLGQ

UniProt P10644, sequence (P10644 whole entry, stated change not applied): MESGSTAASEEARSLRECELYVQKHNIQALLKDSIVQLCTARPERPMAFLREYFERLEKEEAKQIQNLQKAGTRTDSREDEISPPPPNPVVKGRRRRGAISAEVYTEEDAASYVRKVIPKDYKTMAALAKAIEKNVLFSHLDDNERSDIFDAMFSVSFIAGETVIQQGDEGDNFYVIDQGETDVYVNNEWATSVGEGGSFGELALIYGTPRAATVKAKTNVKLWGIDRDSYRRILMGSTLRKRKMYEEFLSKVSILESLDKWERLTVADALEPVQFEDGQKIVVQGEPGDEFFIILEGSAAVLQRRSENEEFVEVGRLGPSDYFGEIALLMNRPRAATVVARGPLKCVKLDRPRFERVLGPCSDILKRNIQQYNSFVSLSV

V5-tagged PKAc-W196R, in H295R adrenal cells (enzyme)
residence of photoactivatable-mCherry PKAc at the site of photoactivation after 12.5 s in H295R cells with smAKAP-GFP and RIα-iRFP [1]: 40%
residence of photoactivatable-mCherry PKAc at the site of photoactivation after 12.5 s in H295R cells with AKAP79-YFP and RIIα-iRFP [2]: 30%
